Source: patent US20070160658A1, “Delivery system for diagnostic and therapeutic agents” (The Penn State Research Foundation, priority 2005, published 2007)

Biological target: T1, IL-13Rα2 (Homo sapiens, UniProt Q14627)
T1 sequence (Q14627 27-380): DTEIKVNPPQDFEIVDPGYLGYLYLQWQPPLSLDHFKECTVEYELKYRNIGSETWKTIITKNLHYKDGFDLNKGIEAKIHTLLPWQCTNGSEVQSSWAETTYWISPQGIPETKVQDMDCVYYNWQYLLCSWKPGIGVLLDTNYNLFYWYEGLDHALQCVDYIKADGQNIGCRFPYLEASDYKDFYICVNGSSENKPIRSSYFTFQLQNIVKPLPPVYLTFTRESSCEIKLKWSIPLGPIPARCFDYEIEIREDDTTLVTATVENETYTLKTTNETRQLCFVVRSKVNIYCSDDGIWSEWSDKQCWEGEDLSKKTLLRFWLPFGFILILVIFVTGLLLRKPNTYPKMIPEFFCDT
Assay: titered cytotoxicity neutralization assay against IL13-PE38QQR cytotoxin
Assay type: cell-based
Settings: protein 100 ng/ml; cytotoxin IL13-PE38QQR fixed at 10 ng/ml
Method: Additionally, position K105 of this region of IL-13 is mutated into a variety of amino acids and the mutants' cytotoxic neutralization potential and binding affinity towards IL-13Rα2 is determined. […] In this titered cytotoxicity neutralization experiment, higher neutralization efficiency against the IL13-PE38QQR cytotoxin, for the mutant IL13.K105R is observed (Madhankumar A. B., Mintz, A., and Debinski, W. (2004) Neoplasia (New York) 6, 15-22). IL13.K105R is able to neutralize the cytotoxicity to 99% at 100 ng/ml concentration when compared with its blocking efficiency at 1000 ng/ml concentration. However, the wild type IL-13 and the mutant IL13.K106R and IL13.R109K have only 86.5%, 86.7% and 80.7% of the cytotoxicity neutralization efficiency with respect to their neutralization efficiency at 1000 ng/ml concentration. […] The high affinity mutant IL13.K105R is used as a ligand to conjugate to liposomes in order to better target the glioma associated IL-13Rα2 receptor.

Row | Substance | cytotoxicity neutralization efficiency with respect to neutralization efficiency at 1000 ng/ml [%]
1 | IL13.K106R: mutant of IL-13 at position 106 | 86.7
2 | wild type IL-13: human cytokine interleukin-13, wild type | 86.5
